The record followed here is paper PMC6407594.

Substrate in this data set: NCCCNCCCCNCCCN
Nature of the data set: purified protein, by the assay type. Particulars: other: compound as substrate, Hepes 50 mM, pH 7.5, 37 °C.

B1: murine SMOX (Mus musculus) (protein)
chain: MQSCESSGDSADDPLSRGLRRRGQPRVVVIGAGLAGLAAARALLEQGFTDVTVLEASSHIGGRVQSVRLGDTTFELGATWIHGSHGNPIYQLAEANGLLEETTDGERSVGRISLYSKNGVACYLTNRGCRIPKDVVEEFSDLYNEVYNMTQEFFRHGKPVNAESQNSVGVFTREKVRNRIRDDPDDTEATKRLKLAMIQQYLKVESCESSSHSIDEVSLSAFGEWTEIPGAHHIIPSGFMRVVELLAEGIPPHVIQLGKPVRCIHWDQASAHPRGPEIEPRGEGDHNHDTGEGGQSGENPQQGRWDEDEPWPVVVECEDCEVIPADHVIVTVSLGVLKRQYTSFFRPCLPTEKVAAIHRLGIGTTDKIFLEFEEPFWGPECNSLQFVWEDEAESCTLTYPPELWYRKICGFDVLYPPERYGHVLSGWICGEEALVMERCDDEAVAEICTEMLRQFTGNPNIPKPRRILRSAWGSNPYFRGSYSYTQVGSSGADVEKLAKPLPYTESSKTAPMQVLFSGEATHRKYYSTTHGALLSGQREAARLIEMYRDLFQQGP
For the protein B1, the Michaelis constant (Km) is 495 µM.

By Km is commonly meant the concentration of substrate that gives half-maximal velocity.
